Blank lines part the entries; values can stand above or below the binder they belong to.
Columns and labels:
Assay in all cases: holdup assay
Set-up in all cases: key: below the threshold = too weak to quantify, mostly under pKd 3.1 to 4
TJP3_3, O95049 = target: T1, TJP3_3, O95049
T1 sequence (O95049 375-456, limits assumed, looked up): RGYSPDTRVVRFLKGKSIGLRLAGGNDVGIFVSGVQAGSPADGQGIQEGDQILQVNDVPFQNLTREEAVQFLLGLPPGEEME

PTPN13_1, Q12923 = target: T2, PTPN13_1, Q12923
T2 sequence (Q12923 1088-1188, limits assumed, looked up): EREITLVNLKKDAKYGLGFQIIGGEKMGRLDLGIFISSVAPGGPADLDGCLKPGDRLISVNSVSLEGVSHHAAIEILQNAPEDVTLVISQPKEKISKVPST

NHERF4_4, Q86UT5 = target: NHERF4_4, Q86UT5
Inadl_9, Q8NI35 = target: Inadl_9, Q8NI35
TX1BP3, O14907 = target: T3, TX1BP3, O14907
T3 sequence (O14907 10-122, limits assumed, looked up): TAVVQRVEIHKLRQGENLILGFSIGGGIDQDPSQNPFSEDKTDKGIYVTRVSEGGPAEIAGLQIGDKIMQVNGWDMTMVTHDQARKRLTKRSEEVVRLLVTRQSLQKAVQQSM

GRIP1_2, Q9Y3R0 = target: T4, GRIP1_2, Q9Y3R0
T4 sequence (Q9Y3R0 145-248, limits assumed, looked up): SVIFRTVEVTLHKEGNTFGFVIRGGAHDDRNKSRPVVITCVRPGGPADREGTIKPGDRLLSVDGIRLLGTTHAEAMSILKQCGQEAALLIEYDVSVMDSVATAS

LNX1_2, Q8TBB1 = target: LNX1_2, Q8TBB1
MPP2, Q14168 = target: T5, MPP2, Q14168
T5 sequence (Q14168 180-250, limits assumed, looked up): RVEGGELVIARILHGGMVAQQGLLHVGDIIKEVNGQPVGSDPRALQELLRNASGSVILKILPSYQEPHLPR

GIPC2, Q8TF65 = target: GIPC2, Q8TF65
Inadl_8, Q8NI35 = target: Inadl_8, Q8NI35
MAGI2_6, Q86UL8 = target: MAGI2_6, Q86UL8
NHERF3_3, Q5T2W1 = target: T6, NHERF3_3, Q5T2W1
T6 sequence (Q5T2W1 238-333, limits assumed, looked up): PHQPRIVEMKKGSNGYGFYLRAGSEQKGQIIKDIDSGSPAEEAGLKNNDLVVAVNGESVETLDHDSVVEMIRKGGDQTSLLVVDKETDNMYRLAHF

DLG3_2, Q92796 = target: T7, DLG3_2, Q92796
T7 sequence (Q92796 221-321, limits assumed, looked up): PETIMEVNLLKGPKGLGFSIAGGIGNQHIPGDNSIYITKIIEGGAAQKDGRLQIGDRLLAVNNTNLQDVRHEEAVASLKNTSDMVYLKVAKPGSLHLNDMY

Inadl_3, Q8NI35 = target: Inadl_3, Q8NI35
LNX1_1, Q8TBB1 = target: LNX1_1, Q8TBB1
CASK, O14936 = target: CASK, O14936
MAGI2_4, Q86UL8 = target: MAGI2_4, Q86UL8
SNTG1, Q9NSN8 = target: T8, SNTG1, Q9NSN8
T8 sequence (Q9NSN8 52-150, limits assumed, looked up): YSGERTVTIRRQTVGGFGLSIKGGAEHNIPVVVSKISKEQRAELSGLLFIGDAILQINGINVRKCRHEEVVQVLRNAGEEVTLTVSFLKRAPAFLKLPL

DLG4_2, P78352 = target: DLG4_2, P78352
MAGI1_1, Q96QZ7 = target: MAGI1_1, Q96QZ7
DLG3_1, Q92796 = target: T9, DLG3_1, Q92796
T9 sequence (Q92796 125-227, limits assumed, looked up): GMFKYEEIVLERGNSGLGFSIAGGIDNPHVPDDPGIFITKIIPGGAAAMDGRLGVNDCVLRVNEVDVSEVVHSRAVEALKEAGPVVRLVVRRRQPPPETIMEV

LIN7B, Q9HAP6 = target: T10, LIN7B, Q9HAP6
T10 sequence (Q9HAP6 88-185, limits assumed, looked up): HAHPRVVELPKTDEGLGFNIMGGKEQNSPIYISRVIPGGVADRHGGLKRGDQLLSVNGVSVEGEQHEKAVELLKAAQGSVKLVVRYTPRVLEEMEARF

TJP1_3, Q07157 = target: TJP1_3, Q07157
FRMPD2_3, Q68DX3 = target: FRMPD2_3, Q68DX3
DLG3_3, Q92796 = target: T11, DLG3_3, Q92796
T11 sequence (Q92796 374-475, limits assumed, looked up): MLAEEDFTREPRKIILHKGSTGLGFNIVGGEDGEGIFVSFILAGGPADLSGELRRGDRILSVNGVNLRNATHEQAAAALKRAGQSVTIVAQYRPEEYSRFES

APBA1_1, Q02410 = target: T12, APBA1_1, Q02410
T12 sequence (Q02410 651-752, limits assumed, looked up): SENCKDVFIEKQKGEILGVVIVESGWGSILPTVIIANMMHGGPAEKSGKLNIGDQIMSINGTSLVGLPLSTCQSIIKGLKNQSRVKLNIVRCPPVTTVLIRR

[1] = plain residues with an end cap or a label only (N-terminal biotin on a linker: ahx)
[2] = plain residues with an end cap or a label only (N-terminal biotin on a linker: ttds)

CASK, O14936, sequence (O14936 487-570): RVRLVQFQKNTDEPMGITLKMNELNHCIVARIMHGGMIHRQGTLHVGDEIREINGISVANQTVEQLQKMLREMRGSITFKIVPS
NHERF4_4, Q86UT5, sequence (Q86UT5 464-550): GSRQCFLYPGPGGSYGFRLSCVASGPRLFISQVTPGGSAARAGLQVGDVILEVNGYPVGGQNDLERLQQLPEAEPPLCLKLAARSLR
LNX1_1, Q8TBB1, sequence (Q8TBB1 261-371): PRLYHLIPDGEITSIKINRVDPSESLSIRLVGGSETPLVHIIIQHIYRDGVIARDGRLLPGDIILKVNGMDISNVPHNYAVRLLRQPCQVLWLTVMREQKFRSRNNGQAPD
TJP1_3, Q07157, sequence (Q07157 416-512): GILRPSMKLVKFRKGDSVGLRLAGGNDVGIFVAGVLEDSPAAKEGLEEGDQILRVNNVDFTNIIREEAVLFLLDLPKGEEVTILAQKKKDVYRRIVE
FRMPD2_3, Q68DX3, sequence (Q68DX3 1073-1166): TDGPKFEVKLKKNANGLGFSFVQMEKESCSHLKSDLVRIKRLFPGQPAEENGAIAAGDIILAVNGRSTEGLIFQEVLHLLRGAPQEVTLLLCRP
MAGI1_1, Q96QZ7, sequence (Q96QZ7 1-106): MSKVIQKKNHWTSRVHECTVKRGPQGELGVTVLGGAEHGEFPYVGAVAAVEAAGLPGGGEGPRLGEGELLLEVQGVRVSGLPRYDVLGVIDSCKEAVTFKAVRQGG
Inadl_3, Q8NI35, sequence (Q8NI35 359-469): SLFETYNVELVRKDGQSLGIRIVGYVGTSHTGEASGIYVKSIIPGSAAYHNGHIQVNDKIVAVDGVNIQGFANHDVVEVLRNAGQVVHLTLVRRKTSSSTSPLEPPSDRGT
DLG4_2, P78352, sequence (P78352 155-259): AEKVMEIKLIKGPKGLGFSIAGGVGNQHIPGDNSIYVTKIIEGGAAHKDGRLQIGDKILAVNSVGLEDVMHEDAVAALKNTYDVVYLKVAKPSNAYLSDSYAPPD
Inadl_9, Q8NI35, sequence (Q8NI35 1530-1615): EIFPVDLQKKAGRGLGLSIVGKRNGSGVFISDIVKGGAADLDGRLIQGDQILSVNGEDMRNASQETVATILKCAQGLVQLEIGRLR
MAGI2_4, Q86UL8, sequence (Q86UL8 772-865): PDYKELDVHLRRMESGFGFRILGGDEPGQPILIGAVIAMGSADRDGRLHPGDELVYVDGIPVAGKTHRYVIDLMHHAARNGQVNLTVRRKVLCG
MAGI2_6, Q86UL8, sequence (Q86UL8 1141-1229): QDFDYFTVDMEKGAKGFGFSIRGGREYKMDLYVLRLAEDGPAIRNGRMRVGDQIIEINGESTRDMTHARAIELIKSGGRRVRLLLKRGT
GIPC2, Q8TF65, sequence (Q8TF65 112-203): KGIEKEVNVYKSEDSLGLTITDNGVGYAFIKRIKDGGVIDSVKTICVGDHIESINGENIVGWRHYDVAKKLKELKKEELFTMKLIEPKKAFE
Inadl_8, Q8NI35, sequence (Q8NI35 1425-1530): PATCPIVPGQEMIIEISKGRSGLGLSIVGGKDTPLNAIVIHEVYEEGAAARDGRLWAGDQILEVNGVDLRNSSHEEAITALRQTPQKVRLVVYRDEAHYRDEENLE
LNX1_2, Q8TBB1, sequence (Q8TBB1 371-470): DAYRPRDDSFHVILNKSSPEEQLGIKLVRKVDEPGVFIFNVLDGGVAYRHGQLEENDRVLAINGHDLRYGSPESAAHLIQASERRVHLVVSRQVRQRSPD

pKd (TJP3_3, O95049; [1]): below the threshold
pKd (PTPN13_1, Q12923; [1]): below the threshold
pKd (NHERF4_4, Q86UT5; [1]): below the threshold
pKd (Inadl_9, Q8NI35; [1]): 4.42
pKd (TX1BP3, O14907; [1]): 3.78
pKd (GRIP1_2, Q9Y3R0; [1]): below the threshold
pKd (LNX1_2, Q8TBB1; [1]): 3.54
pKd (MPP2, Q14168; [1]): below the threshold
pKd (GIPC2, Q8TF65; [1]): below the threshold
pKd (Inadl_8, Q8NI35; [1]): 4.22
pKd (MAGI2_6, Q86UL8; [1]): 4.02
pKd (NHERF3_3, Q5T2W1; [1]): below the threshold
pKd (DLG3_2, Q92796; [1]): 3.92
pKd (Inadl_3, Q8NI35; [1]): below the threshold
pKd (LNX1_1, Q8TBB1; [1]): 4.21
pKd (CASK, O14936; [1]): below the threshold
pKd (MAGI2_4, Q86UL8; [1]): 4.13
pKd (SNTG1, Q9NSN8; [1]): 3.55
pKd (DLG4_2, P78352; [1]): 4.13
pKd (MAGI1_1, Q96QZ7; [1]): below the threshold
pKd (DLG3_1, Q92796; [1]): below the threshold
pKd (LIN7B, Q9HAP6; [1]): below the threshold
pKd (TJP1_3, Q07157; [1]): below the threshold
pKd (FRMPD2_3, Q68DX3; [1]): below the threshold
pKd (DLG3_3, Q92796; [1]): below the threshold
pKd (APBA1_1, Q02410; [1]): below the threshold
Binder: KTSAHHATFV [RGS12, O14924]

pKd (TJP3_3, O95049; [1]): below the threshold
pKd (PTPN13_1, Q12923; [1]): below the threshold
pKd (NHERF4_4, Q86UT5; [1]): below the threshold
pKd (Inadl_9, Q8NI35; [1]): below the threshold
pKd (TX1BP3, O14907; [1]): 3.49
pKd (GRIP1_2, Q9Y3R0; [1]): below the threshold
pKd (LNX1_2, Q8TBB1; [1]): below the threshold
pKd (MPP2, Q14168; [1]): below the threshold
pKd (GIPC2, Q8TF65; [1]): below the threshold
pKd (Inadl_8, Q8NI35; [1]): below the threshold
pKd (MAGI2_6, Q86UL8; [1]): below the threshold
pKd (NHERF3_3, Q5T2W1; [1]): below the threshold
pKd (DLG3_2, Q92796; [1]): below the threshold
pKd (Inadl_3, Q8NI35; [1]): 3.73
pKd (LNX1_1, Q8TBB1; [1]): below the threshold
pKd (CASK, O14936; [1]): below the threshold
pKd (MAGI2_4, Q86UL8; [1]): 3.55
pKd (SNTG1, Q9NSN8; [1]): below the threshold
pKd (DLG4_2, P78352; [1]): below the threshold
pKd (MAGI1_1, Q96QZ7; [1]): below the threshold
pKd (DLG3_1, Q92796; [1]): below the threshold
pKd (LIN7B, Q9HAP6; [1]): below the threshold
pKd (TJP1_3, Q07157; [1]): below the threshold
pKd (FRMPD2_3, Q68DX3; [1]): below the threshold
pKd (DLG3_3, Q92796; [1]): below the threshold
pKd (APBA1_1, Q02410; [1]): 3.63
Binder: RNCSTNDSLL [ADRB2, P07550]

pKd (TJP3_3, O95049; [2]): below the threshold
pKd (PTPN13_1, Q12923; [2]): below the threshold
pKd (NHERF4_4, Q86UT5; [2]): below the threshold
pKd (Inadl_9, Q8NI35; [2]): below the threshold
pKd (TX1BP3, O14907; [2]): 4.45
pKd (GRIP1_2, Q9Y3R0; [2]): below the threshold
pKd (LNX1_2, Q8TBB1; [2]): below the threshold
pKd (MPP2, Q14168; [2]): below the threshold
pKd (GIPC2, Q8TF65; [2]): 3.88
pKd (Inadl_8, Q8NI35; [2]): below the threshold
pKd (MAGI2_6, Q86UL8; [2]): 4.24
pKd (NHERF3_3, Q5T2W1; [2]): below the threshold
pKd (DLG3_2, Q92796; [2]): 4.35
pKd (Inadl_3, Q8NI35; [2]): 3.51
pKd (LNX1_1, Q8TBB1; [2]): below the threshold
pKd (CASK, O14936; [2]): below the threshold
pKd (MAGI2_4, Q86UL8; [2]): 3.48
pKd (SNTG1, Q9NSN8; [2]): 4.36
pKd (DLG4_2, P78352; [2]): 4.15
pKd (MAGI1_1, Q96QZ7; [2]): below the threshold
pKd (DLG3_1, Q92796; [2]): 3.62
pKd (LIN7B, Q9HAP6; [2]): 4.22
pKd (TJP1_3, Q07157; [2]): below the threshold
pKd (FRMPD2_3, Q68DX3; [2]): below the threshold
pKd (DLG3_3, Q92796; [2]): 3.97
pKd (APBA1_1, Q02410; [2]): below the threshold
Binder: SPLHSLETSL [ATP2B1, P20020]

From PMC9482650, “Quantitative fragmentomics allow affinity mapping of interactomes” (Nature Communications, 2022)
